test: yeast display, Sf9 membrane polyspecificity reagent, FACS + sequencing; frameworks hold sequencing errors
Method in brief: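 Galactose induction of a Saccharomyces cerevisiae BJ5465 synthetic nanobody display library ran 36–48 hours. The cells were then stained for 1 hour at 4 °C with 10% biotinylated, detergent-solubilized Sf9 membrane reagent, pulled down on streptavidin microbeads and FACS-sorted into low and high (top ~1%) gates on expression and reagent-binding fluorescence. Labels for polyreactivity follow the gate of origin.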

Question: For “QVQLVESGGGLVQAGGSLRLSCAASGRILYSYAMGWYRQAPGKEREFVAAISRSGARTYYADYVKGRFTISRDNAKNTVYLQMNSLKPEDTAVYYCAADDFSTVEYDYWGQGTQVTVSS”, which “polyreactivity (PSR sort gate)” value is on record?
Answer: low polyreactivity

Question: For “QVQLVESGGGLVQAGGSLRLSCAASGSIFGGYAMGWYRQAPGKERELVAAISVSDDITYYADSVKGRFTISRDNAKNTVYLQMNSLKPEDTAVYYCAAEPDTNYVVRYDYWGQGTQVTVSS”, which “polyreactivity (PSR sort gate)” value is on record?
Answer: high polyreactivity

Question: With “QVQLVESGGVLVQAGGSLRLSCAATGRIKDNVMGWYRQAPGKERELVAAITRSARRTYYADSVTGRFTISRDNAKNTVYLQMNSLKPEDTAVYYCAAQAERYGFEYWGQGTQVTVSS” as the sequence, how does the “polyreactivity (PSR sort gate)” value read?
Answer: low polyreactivity

Question: Which “polyreactivity (PSR sort gate)” value does the source give for “QVQLVESGGGLVQAGGSLRLSCAASGRTFDLYAMGWYRQAPGKEREFVAAISWRGGRTYYADSVKGRFTISRDNAKNTVYLQMNSQKPEDTAVYYCAARTGATSRIRFDYWGQGTQVTVSS” here?
Answer: low polyreactivity

Question: With “QVQLVESGGGLVQAGGSLRLSCAASGSIFYKYTMGWYRQAPGKERELVAAITKSGGSTYYADSVKGRFTISRDNAKNTVYLQMNSLKPEDTAVYYCAAQIGRSATRGSYGYWGQGTQVTVSS” as the sequence, how does the “polyreactivity (PSR sort gate)” value read?
Answer: high polyreactivity

Question: For “QVQLVESGAALVQAGGSLRLSCAASGRTFWFNAMGWYRQPPGKERELVASISLSVGSTYYADSVKGRFTISRDNAKNTVYLQMNSLKAEDTAVYNCAADQTVHISSYDYWGQGTQVTVSS”, which “polyreactivity (PSR sort gate)” value is on record?
Answer: low polyreactivity

Question: For “QVQLVDSGGGLVQAGGILRLSCAASGSTFDVYAIGWYRQAPGKEWELVAAITWDGDRTYYADSVKGRFTISRDNAKNTVYLQMNSLKPEDTGVYYCNADEGGNYREDYWGQGTQVTVSS”, which “polyreactivity (PSR sort gate)” value is on record?
Answer: low polyreactivity

Question: Which “polyreactivity (PSR sort gate)” value does the source give for “QVQLQECGGGLVQAGGSLRLSCAASGNIFDADIMGWYRQAPGKERELVASVSDGGSTNYADSVKGRFTISRDNAKNTVYLQMNSLKPEDTAVYYCAAIVYPDILTYFDYDYDYFYWGQGTQVTVGS” here?
Answer: low polyreactivity

Question: With “QVQLVESGGGLVQAGGSLRITCAASGSILFAKSMGWYRQAPGKERELVADIRGSGSTYYADSVKGRFTISRDNAKNTVYLQMNSLKPEDTAVYYCAKRHLISIPDYGRHEYYYWGQGTQVTVSS” as the sequence, how does the “polyreactivity (PSR sort gate)” value read?
Answer: low polyreactivity

Question: For “QVQLVESGGGLVQAGGSLRLSCAASGYTFWHYAMGWYRQAPGKEREFVATISSGGSTYYADSVKGRFTISRDNAMNTVYLQMNSLKPEDTAVYYCAADVDYIGPIYDYWGQGTQVTVSS”, which “polyreactivity (PSR sort gate)” value is on record?
Answer: low polyreactivity

Question: With “QVQLVESGGGLVQAGGSLRLSCAASGYIFLSYAMGWYIQAPGKERELVAAISRGGRTYYADSVKGRFTISRDNAKNTVYLQMNSLKPEDTAVYYCNAVSTPGKYGYWGQGTQVTVSS” as the sequence, how does the “polyreactivity (PSR sort gate)” value read?
Answer: high polyreactivity

Question: For “QVQLVESGGGLVQAGGSLRLSCAASGRTYYYNAMGWYREAPGKERELVARISQRTGSTYYADSVKGRFTISRDNAKNTVYLQMNSLKPEDTAVYYCAASSQTRQWTNDYWGQGTQVTVSS”, which “polyreactivity (PSR sort gate)” value is on record?
Answer: high polyreactivity

Question: With “QVQLVESGGGLVQAGGSLRLSCAASGITFYKNTMGWYRQAPGKERELVAAISSSGDNTFYADSVKGRFTISRDNAKNTVYLQMNSLKPEDTAVYYCATYRVINTIRGYYYTYDYWGQGTQVTVSS” as the sequence, how does the “polyreactivity (PSR sort gate)” value read?
Answer: high polyreactivity

Question: Which “polyreactivity (PSR sort gate)” value does the source give for “QVQLVESGGGLFQAGGILILSFAASGNTLNYYTMGWYRQAPGKERELVAAISSSGGSTYYAESVKGSFTISRDYAKNTVYLHMNRLKPEDNAVYFCNDSVINEMNNWGQGTQVTVSS” here?
Answer: low polyreactivity

Question: Which “polyreactivity (PSR sort gate)” value does the source give for “QVQLVESGGGLVQAGGSLRLSCAASGFAFSYYAMGWYIPAPGKEREFVASIDWSGGSTYYADSVKGRFTISRDNAKNTVYLQMNSLKPEDTAVYYCAAELDYFPGYDYWGQGTQVTVSS” here?
Answer: low polyreactivity

Question: For “QVQLEESGGGLVQAGGSLRLSCPASGSTFGKNAMGWSRQAPGKERELVASITWRGGCTYYADSVKGRITISRDNAKNTVFLQMNSLKPEDTAVYYCATNWHIHIGSYKYYYWGQGTQVTVSS”, which “polyreactivity (PSR sort gate)” value is on record?
Answer: low polyreactivity

Question: With “QVQLVESGGGLVQAGGSLRLTCPASGGIFYDYSMVWYRQAPGKERQLVAAITRSGDSTYYADSVKGRFTISRDNAKNTVYLQMNSLKPEDTAVYYCAADIWSSDYEEFYYWVQGTQVTVSS” as the sequence, how does the “polyreactivity (PSR sort gate)” value read?
Answer: low polyreactivity

Question: Which “polyreactivity (PSR sort gate)” value does the source give for “QVQLVESGGGLVQAGGSLRLSCAASGRTFAINAMGGYRQAPGKERELVATIDRSGGSTYYADSVKGRFTISRDNAKNTVYLQMNRLKPEDTAVYYCAADYPVRSYDYWGQGTQVTVSS” here?
Answer: low polyreactivity

Question: Which “polyreactivity (PSR sort gate)” value does the source give for “QVQLVESGGGLVQAGGSLRLSCAASGSIFRGYAMGWYRQAPGKERELVAAITKIGASTYYADSVKGRFTISRDNAKNTVYLQMYSLKPEDTAVYYCNKDRGITPYRAYWGMDYWGQGTQVTVSS” here?
Answer: low polyreactivity

Question: With “QVQLVESGGGLVQAGGSLRLSCAAYGITFRVNPMGWYRQAPGKERELVAAISRGGGSTSYADSVMGRFTISRDNAKNTFYLQMNSLKPEDTAVYFCAREPLAYYVARYDYWGQGTQVTVSS” as the sequence, how does the “polyreactivity (PSR sort gate)” value read?
Answer: high polyreactivity

Question: Which “polyreactivity (PSR sort gate)” value does the source give for “QVQLVESGGGLVQAGGSLRLSCAAAGSTFRYNDMGWYRQAPGKERELVAAITRSGGSTYYADSVKGRFTISRDTAKNTVYLQMNSLKPEDTAVYYCNRGLRYVLAEDIAVPRVPEYYWGQGTQVTVSS” here?
Answer: low polyreactivity

Question: Which “polyreactivity (PSR sort gate)” value does the source give for “QDQLVESGGGLVQAGGSLRLIFAASGSIFNGYAMGWSRQAPGKERELVADIRSGGSTYYADSVMGRFTISRDNAKNTVYLQMNSLKPEDTAVYYGAADTITDGYDYWGQGSQVTVSS” here?
Answer: low polyreactivity

Question: With “QVQLVESGGGLVQAGGSLRLSCAASGFTLRSNVMGWSRQAPGKERELVAGISQSGGRTFYADSVKGRFTISRDNAKNTVYLQMNSLKPEDTAVYYCAARRYAVEGSKNYYWGQGTQVTVSS” as the sequence, how does the “polyreactivity (PSR sort gate)” value read?
Answer: low polyreactivity

Question: For “QVQLVESGGGLVQAGGSLRLSCAASGRTFDTNAMGWYRQAPGKERELVAAISWSAGRTYYADSVKGRFTISRDNAKNTVYLQMNSLKPEDTAVYYCAARPPFIAYSWQKQGYYWGQGTQVTVSS”, which “polyreactivity (PSR sort gate)” value is on record?
Answer: low polyreactivity

Question: Which “polyreactivity (PSR sort gate)” value does the source give for “QVQLVESGGGLVQAGGSLRLSCAASGGILSDYAMGWYRQAPGKERELVAAITISGGRTNYADSVKGRITISRDNAKITVYLQMNSLKPEDTAVSYCNKLPWSVRVYKPYDYWGEGTQVTVSS” here?
Answer: low polyreactivity

Question: Which “polyreactivity (PSR sort gate)” value does the source give for “QVQLVESGGGLVQAGGSLRLSCAASGFIYGWYAMGWYRQAPGKERELVAAINWSGTSTYYADSVKGRFTISRDNAKNTVYLQMNSLKPEDTAVYYCAAYFQKLPTTGYDYWGQGTQVTVSS” here?
Answer: low polyreactivity

Question: Which “polyreactivity (PSR sort gate)” value does the source give for “QVQLVESGGGLVQAGGSLRLSCAASGLTFIIYAMGWYRQAPGKERELVARISSGGRTNYADSVKGRFTISRDYAKNTVYIQMNSLTPEDTAVYYCAAAFVYPYRHYYRYDYWGQATQVTVSS” here?
Answer: high polyreactivity

Question: For “QVQLVESGGGLVQAGGSLRFSCAASGSTVYSYAMGWYRQAPGKERELVAAITRGGRTYYADSVKGRFTISRDNAKNTVYFKMNSLKPEDTAVYSCKVVTKFTGRGYDYWGQGSQVTVSS”, which “polyreactivity (PSR sort gate)” value is on record?
Answer: high polyreactivity

Question: Which “polyreactivity (PSR sort gate)” value does the source give for “QVQLVESGGGLVQAGGSLRLSCAASGRTFFRYAMGWYRQAPGKERELVASISGGITNYADSVKGRFTISRDNAQNTVYLQMNSLKPEDTAVYYCAADDYPYSYSSQFQYTGYEYWGQGTQVTVSS” here?
Answer: low polyreactivity

Question: With “QVQLVESGGGLVQAGGSLRLSCAASGSTISGYAKGWYRQAPGKERELVATISRGGSTNYADSVKGRFTISRDNAKNTVYLQMNSLKPEDTEVYYCAAVVSDYVWRYEYWGQGTQVTVSS” as the sequence, how does the “polyreactivity (PSR sort gate)” value read?
Answer: low polyreactivity

Question: For “QVQLVESGGGLVQAGGSLRLSCAASGSIFKQYVMGWYRQAPGKERELVAAISRGGNTYYADSVKGRFTISRDNAKNTVYLQMNSLKPEDTAVYYCAAVYGGRAVPYYSWGQGTQVTVSS”, which “polyreactivity (PSR sort gate)” value is on record?
Answer: high polyreactivity

Question: For “QVQLVESGGGLVQAGGSLRLSCAASGITFEANTMGWYRQAPAKERELVAVITDTGSTNYADSVKGRFTISRDNAKNTVYLQMNSLKPEDTAVFYCKADAEPSSGTSAKNDYWGQGTQVSVSS”, which “polyreactivity (PSR sort gate)” value is on record?
Answer: low polyreactivity

Question: For “QVQLVESGGGLVQAGGSLPLSCAASGSIFVGYAMGWYRQAPGKERELVAAITNSGGRTYYADSVKGRFTISRDNAKNTVYLQMNSLKPEDTAVYYCNRVTGKYRYWVGFEYWGQGTQVTVSS”, which “polyreactivity (PSR sort gate)” value is on record?
Answer: high polyreactivity

Question: Which “polyreactivity (PSR sort gate)” value does the source give for “QVQLVESGGGLVQAGGSLRLSCAASGITFIINAMGWYRQAPGKERELVAAISWRGGNTHYADSVKGRFTISRDYAKNTVYLQLNSLKAEVTAVYYCAARVTSRRDPDQKHGYWGQGTQVTVSS” here?
Answer: high polyreactivity

Question: With “QVQLVESRGGIVQAGGSLRLTCAASGRTFRSKVMGWYRQAQGKERELVADITYSGGNTYYADSVKGRFTISRDNAKNTDYLQMNSLKPEDNAVYYCATGWSWWTFDYWGQGTQVTVSS” as the sequence, how does the “polyreactivity (PSR sort gate)” value read?
Answer: high polyreactivity

Question: For “QVQLVESGGGLVQAGGSLRLSCAASGSTFSDYAMGWYRQAPGKERELVAAISGGGTTDYADSVKGRFTISRDNAKNTVYLQMNSLKPEDTAVYYCNKPVEGSFLPYSYLRFDYWGQGTHVTVSS”, which “polyreactivity (PSR sort gate)” value is on record?
Answer: low polyreactivity

Question: With “QFQLVESGGGLVQAGGSLRLSCAPSGSTFVSYSMAWYRQEPGKERQFVAAITWSGGSTYYADSVKGRFTISRDNANNTVYLQMNSLKPEDTAVYYCARPYRGSPRYYYWGQGTQVTLSS” as the sequence, how does the “polyreactivity (PSR sort gate)” value read?
Answer: high polyreactivity

Question: For “QVQLVESGGGLVQAGGILRLSCAASGSILDLNAMGWYRQAPGKERELFAAISYSGDSTYYADSVKGRFTISRDNAKNTVYLQMNSLKPEDTAVYEGAAEVYGAVYDYWGQGTQVTVAS”, which “polyreactivity (PSR sort gate)” value is on record?
Answer: low polyreactivity

Question: With “QVQLVESGGGLVQAGGSLRLICAASGFIFTGYVMGWYRQEPGKERELVAAISSRGGSTYYADSVKGRFTISRDNAKNTVYLQMNSLKPEDTAVYYCAARYVYGSSYDYWGQGTQVTVSS” as the sequence, how does the “polyreactivity (PSR sort gate)” value read?
Answer: high polyreactivity

Question: Which “polyreactivity (PSR sort gate)” value does the source give for “QVQLVESGGGLVQAGGSLRLSCAASGSIFYQNAMGWYRQAPGKESELVAAISWRGDSTSYADSVKGRFTISRDNAKNTVYLQMNSLKPEDPAVYYCATAHDYAFYRYWYVPSEYNYWGQGTLVTVSS” here?
Answer: low polyreactivity

Question: Which “polyreactivity (PSR sort gate)” value does the source give for “QVQLVESGGGLVQAGGSLRLSCAASGFIFSYYTMGWYRQAPGKERELVAAISRRGGSTYYADSVKGRFTISRDNAKNTVYLQMNSLKPEDTAVYYCAAPRDWDAGDYWGQGTQVTVSS” here?
Answer: high polyreactivity

Question: For “QVQLVESGGGLVQAGGSLRLSCDASGSIFQNYAMGWYRQAPGKERELVAAINDDSTYYADSVKGRFTISRDNAKNTVYLQMNSLKPEDTAVYYCNAEDYVTLKIDLSWPYGYWGQGTQVTVSS”, which “polyreactivity (PSR sort gate)” value is on record?
Answer: low polyreactivity

Question: For “QVQLVESGGGLVQAGGSLRLSCAASGITFYVYTMGWYRQAPGKERELVAAINGSGGSTNYADSVKGRFTISRDNAKNTVFLQMNSLKPEDTAVYYCAADWSLRLYDYWGQGTQVTVSS”, which “polyreactivity (PSR sort gate)” value is on record?
Answer: low polyreactivity

From the nanobody polyreactivity screen of Harvey et al. (2022)
